Source: the supplement of paper PMC10724198
± gives the standard deviation of the averaged measurements.

Each sequence was assayed on Saccharomyces cerevisiae (assay: protein stability index of tFT-peptide fusion (C-terminal peptide) (PSI (0-1 scale)); higher = more stable (slower turnover)). Details: genetic background: das1 deletion; temperature: 30 C.
Experimental: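 MPS profiling in S. cerevisiae of the yeast C-terminome library: the last 12 aa of each annotated ORF are fused to the C-terminus of a sfGFP-mCherry timer, after a GGGS linker. Cells are FACS-sorted into 8 mCherry/sfGFP bins and deep-sequenced. PSI runs from 0 (unstable) to 1 (stable); wild type and das1Δ backgrounds, two technical replicates each.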
Sequence FVLKCIKDMYAK [IRC25 C-terminal 12 aa] has a protein stability index of 0.682 ± 0.018.
Work on FVSSDPGLTQWL [HNT2 C-terminal 12 aa] yielded a protein stability index of 0.745 ± 0.014.
FVVKEGLLKNRK [GTF1 C-terminal 12 aa] was tested, and the protein stability index was 0.701 ± 0.027.
FYDLWDAYEDDS [GDB1 C-terminal 12 aa] was tested, and the protein stability index was 0.751 ± 0.028.
Sequence FYPVTSEFSKNK [HOB2 C-terminal 12 aa] has a protein stability index of 0.7 ± 0.039.
Sequence GAGAFAVGALLL [NCW2 C-terminal 12 aa] has a protein stability index of 0.7034 ± 0.0019.
GALALGLISYLL [FIT2 C-terminal 12 aa] showed a protein stability index of 0.695 ± 0.007.
GALPTTDPLFQW [YJL043W C-terminal 12 aa] showed a protein stability index of 0.7371 ± 0.0031.
GAPSLYSYLLCL [IRC2 C-terminal 12 aa] gave a protein stability index of 0.684 ± 0.0082.
GAVVAGAAALLL [TIP1 C-terminal 12 aa] showed a protein stability index of 0.729 ± 0.024.
Sequence GCGEDLKKDILS [DOP1 C-terminal 12 aa] has a protein stability index of 0.71 ± 0.017.
Sequence GCVLGKLGYLKM [RAD33 C-terminal 12 aa] has a protein stability index of 0.719 ± 0.024.
Work on GDDESRPRKMRR [BMS1 C-terminal 12 aa] yielded a protein stability index of 0.678 ± 0.0091.
With GDDPYAEYFQDF [TPK2 C-terminal 12 aa] the protein stability index was 0.735 ± 0.01.
GEAVPEPVEEES [SEC27 C-terminal 12 aa] gave a protein stability index of 0.698 ± 0.013.
With “GFRPECLYYYIK [YPR016W-A C-terminal 12 aa]” the protein stability index was 0.5801 ± 0.0036.
GGPPKVNKDIIS [HAT2 C-terminal 12 aa] gave a protein stability index of 0.708 ± 0.035.
Sequence GIGFFAVCFERD [RCM1 C-terminal 12 aa] has a protein stability index of 0.6906 ± 0.0028.
In the case of GKCTSSKFKLSS [KRE6 C-terminal 12 aa], the protein stability index is reported as 0.71 ± 0.026.
GKNGARLSEIGW [SNZ2 C-terminal 12 aa] showed a protein stability index of 0.7224 ± 0.0061.
GKNKKKSKHSKK [PRP43 C-terminal 12 aa] showed a protein stability index of 0.702 ± 0.057.
Sequence GLDPEELEDLVT [PDS1 C-terminal 12 aa] has a protein stability index of 0.688 ± 0.011.
For GLEFVASRSASS [MDH2 C-terminal 12 aa], the protein stability index was 0.692 ± 0.014.
Sequence GLNKNMLKKIIK [YPR084W C-terminal 12 aa] has a protein stability index of 0.715 ± 0.032.
GLQNRLARNNEK [MRP4 C-terminal 12 aa] gave a protein stability index of 0.734 ± 0.018.
GLQVMNEMKQRW [ECM25 C-terminal 12 aa] gave a protein stability index of 0.7091 ± 0.0069.
In the case of GMLGLSALLGGE [SEC11 C-terminal 12 aa], the protein stability index is reported as 0.687 ± 0.019.
For GNLPQPVFQPLL [VHR1 C-terminal 12 aa], the protein stability index was 0.701 ± 0.0019.
In the case of GQLTTDEETCIE [RTR2 C-terminal 12 aa], the protein stability index is reported as 0.6793 ± 0.0044.
GRDCISKRAILE [IMP2 C-terminal 12 aa] showed a protein stability index of 0.7067 ± 0.0024.
Sequence GRGLLGCRIQEL [NAS2 C-terminal 12 aa] has a protein stability index of 0.703 ± 0.012.
GSESILTAKQPI [OCA2 C-terminal 12 aa] gave a protein stability index of 0.706 ± 0.0075.
In the case of GSNNRGYTLIDL [ENT1 C-terminal 12 aa], the protein stability index is reported as 0.698 ± 0.015.
GTDLLKENRNCS [YML096W C-terminal 12 aa] gave a protein stability index of 0.669 ± 0.0067.
In the case of GTVDEIIKFLSE [YTA7 C-terminal 12 aa], the protein stability index is reported as 0.725 ± 0.023.
Work on GVLLILASALFT [ZRT3 C-terminal 12 aa] yielded a protein stability index of 0.3294 ± 0.0016.
GVSTGYEKIRYI [FUI1 C-terminal 12 aa] showed a protein stability index of 0.734 ± 0.012.
For GVVKFNSEHYRD [SAP185 C-terminal 12 aa], the protein stability index was 0.721 ± 0.045.
Work on GWLQDSNFTKYL [FUN19 C-terminal 12 aa] yielded a protein stability index of 0.6978 ± 0.0056.
GWQTGALIIKKH [SAF1 C-terminal 12 aa] showed a protein stability index of 0.729 ± 0.0083.
Work on GYDTVASLDFWG [ROM2 C-terminal 12 aa] yielded a protein stability index of 0.742 ± 0.018.
Work on GYEDGTIKLNKI [ASA1 C-terminal 12 aa] yielded a protein stability index of 0.697 ± 0.033.
HAEFHARNLGLI [YJL068C C-terminal 12 aa] was tested, and the protein stability index was 0.7036 ± 0.0021.
HGGNISSSTYQA [GND2 C-terminal 12 aa] was tested, and the protein stability index was 0.698 ± 0.02.
In the case of HHVESVCIMKRI [TRM2 C-terminal 12 aa], the protein stability index is reported as 0.668 ± 0.014.
In the case of HPCTSLTSVIVV [YGL072C C-terminal 12 aa], the protein stability index is reported as 0.36 ± 0.045.
HSRNPKRSSTTL [TRK1 C-terminal 12 aa] gave a protein stability index of 0.737 ± 0.034.
For HTPSLKTWSTIK [FKS1 C-terminal 12 aa], the protein stability index was 0.7108 ± 0.0063.
Sequence HVDKRTKIDQEA [ISW2 C-terminal 12 aa] has a protein stability index of 0.702 ± 0.056.
With HWQYMKDYLNLY [SLI1 C-terminal 12 aa] the protein stability index was 0.715 ± 0.033.
In the case of IAEGKSLGIIGA [HXK1 C-terminal 12 aa], the protein stability index is reported as 0.6923 ± 0.0061.
Sequence “IAPSGKYYFPFG [YMR031W-A C-terminal 12 aa]” has a protein stability index of 0.718 ± 0.011.
For IARSRRAFLSKL [MRP7 C-terminal 12 aa], the protein stability index was 0.843 ± 0.018.
Work on IDASKDQDTMME [NUG1 C-terminal 12 aa] yielded a protein stability index of 0.693 ± 0.019.
In the case of IDEFYECLQDQQ [DCN1 C-terminal 12 aa], the protein stability index is reported as 0.704 ± 0.0073.
Work on “IDKFLNSAVLSA [YMR307C-A C-terminal 12 aa]” yielded a protein stability index of 0.5813 ± 0.0033.
Work on IDKLRNSFYKTI [SMU2 C-terminal 12 aa] yielded a protein stability index of 0.687 ± 0.028.
With IDSNNAQSKIFS [MYO1 C-terminal 12 aa] the protein stability index was 0.6956 ± 0.00034.
In the case of IDVELEEESFTW [FRE1 C-terminal 12 aa], the protein stability index is reported as 0.698 ± 0.024.
IEFSMRSLCQGK [CFT1 C-terminal 12 aa] was tested, and the protein stability index was 0.7166 ± 0.0059.
Sequence IEHYKSEQEKSL [MUP1 C-terminal 12 aa] has a protein stability index of 0.6971 ± 0.0015.
In the case of IEQETGSEEKQE [SBP1 C-terminal 12 aa], the protein stability index is reported as 0.6781 ± 0.0035.
Work on IFCTLFIHTQIL [PLC1 C-terminal 12 aa] yielded a protein stability index of 0.138 ± 0.011.
IFHQLQKKINRS [IWR1 C-terminal 12 aa] gave a protein stability index of 0.703 ± 0.0083.
IFIFSWLGYEDS [ATG10 C-terminal 12 aa] was tested, and the protein stability index was 0.661 ± 0.043.
IGEWTISYTSLI [IPA1 C-terminal 12 aa] was tested, and the protein stability index was 0.66 ± 0.015.
Work on IGFKRKRKHAKK [NOP4 C-terminal 12 aa] yielded a protein stability index of 0.703 ± 0.051.
Sequence IGFNKLGQMVYI [MRPS35 C-terminal 12 aa] has a protein stability index of 0.669 ± 0.018.
IGGNCATRLFKL [SLM6 C-terminal 12 aa] showed a protein stability index of 0.7481 ± 0.0008.
IGRRKLVGYKHH [ATP20 C-terminal 12 aa] showed a protein stability index of 0.702 ± 0.02.
Sequence IGSIKEDYLGAI [RPB7 C-terminal 12 aa] has a protein stability index of 0.692 ± 0.021.
IHYFKSNLSSPS [RAM1 C-terminal 12 aa] gave a protein stability index of 0.688 ± 0.022.
IIDLNLHSFTKQ [POP6 C-terminal 12 aa] gave a protein stability index of 0.722 ± 0.022.
In the case of IKLADAIYKGLE [FOL1 C-terminal 12 aa], the protein stability index is reported as 0.702 ± 0.013.
In the case of IKNTGDLLKLYK [ALK1 C-terminal 12 aa], the protein stability index is reported as 0.685 ± 0.021.
For ILELVNEDYQSI [MRP17 C-terminal 12 aa], the protein stability index was 0.738 ± 0.048.
With ILEYQKRRSFIK [IRC3 C-terminal 12 aa] the protein stability index was 0.7238 ± 0.0049.
Work on ILKPYYIWNNRN [ARR3 C-terminal 12 aa] yielded a protein stability index of 0.7161 ± 0.0069.
Work on ILRLRLRKATFD [PRM1 C-terminal 12 aa] yielded a protein stability index of 0.706 ± 0.023.
ILRQARCDRPHY [YEL068C C-terminal 12 aa] was tested, and the protein stability index was 0.691 ± 0.02.
“ILVLRHFDEIFI [YOR032W-A C-terminal 12 aa]” showed a protein stability index of 0.63 ± 0.0065.
For IMICFLERRKGN [FYV1 C-terminal 12 aa], the protein stability index was 0.652 ± 0.018.
Sequence “IMTSEIVTNALR [YEL030C-A C-terminal 12 aa]” has a protein stability index of 0.70774 ± 0.00013.
